Data published in patent US20260218174.

Experiments:
Assay in all cases: cleavage_in_vitro
[1] = system: OMNI-XL-18 (unidentified metagenomic bacterium); details: TXTL; PAM NGYCCNNN
[2] = system: OMNI-XL-16 (unidentified metagenomic bacterium); details: TXTL; PAM NARNACVN
[3] = system: OMNI-XL-12 (unidentified metagenomic bacterium); details: TXTL; PAM relaxed NRNNCCNN, strict NRTNCCRN
[4] = system: OMNI-XL-19 (unidentified metagenomic bacterium); details: TXTL; PAM NRGNRCNN

Chain of OMNI-XL-18 (unidentified metagenomic bacterium) (chain, as listed by the source): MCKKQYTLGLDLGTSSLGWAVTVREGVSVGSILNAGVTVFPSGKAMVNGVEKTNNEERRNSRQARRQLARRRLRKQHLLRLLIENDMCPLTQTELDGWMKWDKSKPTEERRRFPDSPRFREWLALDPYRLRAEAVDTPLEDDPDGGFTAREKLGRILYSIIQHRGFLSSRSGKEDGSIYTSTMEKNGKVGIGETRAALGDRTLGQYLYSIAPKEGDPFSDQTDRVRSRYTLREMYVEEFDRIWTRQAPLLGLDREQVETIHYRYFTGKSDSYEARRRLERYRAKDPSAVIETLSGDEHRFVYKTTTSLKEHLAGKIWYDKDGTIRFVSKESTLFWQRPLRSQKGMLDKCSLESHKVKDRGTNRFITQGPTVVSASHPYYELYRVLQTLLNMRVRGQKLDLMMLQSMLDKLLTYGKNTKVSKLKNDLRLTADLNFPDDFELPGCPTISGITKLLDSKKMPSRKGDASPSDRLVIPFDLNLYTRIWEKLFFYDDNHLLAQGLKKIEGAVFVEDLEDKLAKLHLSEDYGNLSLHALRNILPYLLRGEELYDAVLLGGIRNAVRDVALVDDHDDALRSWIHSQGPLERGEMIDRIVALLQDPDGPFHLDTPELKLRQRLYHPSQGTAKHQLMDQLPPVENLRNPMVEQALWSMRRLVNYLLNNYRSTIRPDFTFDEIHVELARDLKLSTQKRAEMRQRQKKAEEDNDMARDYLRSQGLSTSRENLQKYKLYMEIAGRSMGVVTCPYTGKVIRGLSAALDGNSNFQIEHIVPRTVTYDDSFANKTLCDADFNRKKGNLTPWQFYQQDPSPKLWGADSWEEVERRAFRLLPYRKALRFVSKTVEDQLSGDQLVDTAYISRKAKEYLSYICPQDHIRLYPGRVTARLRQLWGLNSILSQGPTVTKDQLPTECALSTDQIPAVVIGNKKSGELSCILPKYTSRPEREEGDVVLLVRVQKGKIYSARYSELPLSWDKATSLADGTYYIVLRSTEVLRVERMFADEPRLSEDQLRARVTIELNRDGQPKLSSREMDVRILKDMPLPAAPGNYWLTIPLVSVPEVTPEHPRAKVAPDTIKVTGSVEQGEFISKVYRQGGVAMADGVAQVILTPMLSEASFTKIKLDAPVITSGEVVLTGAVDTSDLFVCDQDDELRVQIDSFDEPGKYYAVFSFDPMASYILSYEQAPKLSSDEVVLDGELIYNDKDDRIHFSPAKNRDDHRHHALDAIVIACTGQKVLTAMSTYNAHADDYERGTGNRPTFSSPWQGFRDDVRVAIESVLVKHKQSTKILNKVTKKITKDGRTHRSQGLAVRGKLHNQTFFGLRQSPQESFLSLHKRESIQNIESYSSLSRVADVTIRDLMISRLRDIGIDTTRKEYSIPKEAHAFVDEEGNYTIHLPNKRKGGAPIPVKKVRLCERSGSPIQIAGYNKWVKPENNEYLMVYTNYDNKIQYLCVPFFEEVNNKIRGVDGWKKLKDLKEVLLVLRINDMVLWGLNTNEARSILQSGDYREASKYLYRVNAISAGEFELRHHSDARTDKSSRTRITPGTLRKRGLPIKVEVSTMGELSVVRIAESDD
Chain of OMNI-XL-12 (unidentified metagenomic bacterium) (chain, as listed by the source): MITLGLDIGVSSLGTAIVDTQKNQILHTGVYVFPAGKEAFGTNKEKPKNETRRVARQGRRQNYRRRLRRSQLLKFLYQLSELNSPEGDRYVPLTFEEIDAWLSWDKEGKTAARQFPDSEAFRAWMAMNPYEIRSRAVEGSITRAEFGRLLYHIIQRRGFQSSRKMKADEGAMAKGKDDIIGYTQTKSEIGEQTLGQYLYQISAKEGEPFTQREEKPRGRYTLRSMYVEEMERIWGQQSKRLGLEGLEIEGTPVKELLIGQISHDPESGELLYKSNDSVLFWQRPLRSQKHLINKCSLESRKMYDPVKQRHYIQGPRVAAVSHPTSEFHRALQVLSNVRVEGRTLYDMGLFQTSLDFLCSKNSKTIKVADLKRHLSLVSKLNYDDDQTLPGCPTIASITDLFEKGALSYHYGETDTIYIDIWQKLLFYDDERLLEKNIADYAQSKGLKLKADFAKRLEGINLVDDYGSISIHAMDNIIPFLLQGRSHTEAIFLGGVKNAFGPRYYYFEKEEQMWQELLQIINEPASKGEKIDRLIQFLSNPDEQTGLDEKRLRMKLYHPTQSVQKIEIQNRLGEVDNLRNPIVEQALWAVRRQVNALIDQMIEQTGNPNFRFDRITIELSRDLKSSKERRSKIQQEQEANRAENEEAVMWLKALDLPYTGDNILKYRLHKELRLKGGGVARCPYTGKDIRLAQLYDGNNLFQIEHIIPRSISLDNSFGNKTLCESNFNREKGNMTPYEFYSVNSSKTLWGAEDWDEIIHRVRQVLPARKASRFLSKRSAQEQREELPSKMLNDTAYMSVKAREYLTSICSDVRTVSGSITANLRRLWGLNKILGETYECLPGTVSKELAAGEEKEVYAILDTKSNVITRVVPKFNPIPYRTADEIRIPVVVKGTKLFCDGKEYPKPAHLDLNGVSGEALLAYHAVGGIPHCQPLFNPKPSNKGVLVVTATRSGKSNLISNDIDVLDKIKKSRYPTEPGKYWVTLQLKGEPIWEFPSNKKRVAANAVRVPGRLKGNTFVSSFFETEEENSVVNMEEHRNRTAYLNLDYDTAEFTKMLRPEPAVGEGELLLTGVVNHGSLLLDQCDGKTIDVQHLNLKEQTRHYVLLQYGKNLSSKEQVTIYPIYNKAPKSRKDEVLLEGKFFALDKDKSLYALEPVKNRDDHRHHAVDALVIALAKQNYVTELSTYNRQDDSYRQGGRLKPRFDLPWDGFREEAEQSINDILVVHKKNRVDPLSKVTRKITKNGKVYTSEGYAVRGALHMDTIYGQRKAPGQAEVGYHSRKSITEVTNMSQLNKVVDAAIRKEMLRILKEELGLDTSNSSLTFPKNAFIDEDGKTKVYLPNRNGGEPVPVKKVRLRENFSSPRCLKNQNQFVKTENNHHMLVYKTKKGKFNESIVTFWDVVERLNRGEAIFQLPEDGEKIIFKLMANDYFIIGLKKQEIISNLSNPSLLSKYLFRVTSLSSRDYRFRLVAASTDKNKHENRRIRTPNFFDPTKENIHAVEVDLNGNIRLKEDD
Chain of OMNI-XL-16 (unidentified metagenomic bacterium) (chain, as listed by the source): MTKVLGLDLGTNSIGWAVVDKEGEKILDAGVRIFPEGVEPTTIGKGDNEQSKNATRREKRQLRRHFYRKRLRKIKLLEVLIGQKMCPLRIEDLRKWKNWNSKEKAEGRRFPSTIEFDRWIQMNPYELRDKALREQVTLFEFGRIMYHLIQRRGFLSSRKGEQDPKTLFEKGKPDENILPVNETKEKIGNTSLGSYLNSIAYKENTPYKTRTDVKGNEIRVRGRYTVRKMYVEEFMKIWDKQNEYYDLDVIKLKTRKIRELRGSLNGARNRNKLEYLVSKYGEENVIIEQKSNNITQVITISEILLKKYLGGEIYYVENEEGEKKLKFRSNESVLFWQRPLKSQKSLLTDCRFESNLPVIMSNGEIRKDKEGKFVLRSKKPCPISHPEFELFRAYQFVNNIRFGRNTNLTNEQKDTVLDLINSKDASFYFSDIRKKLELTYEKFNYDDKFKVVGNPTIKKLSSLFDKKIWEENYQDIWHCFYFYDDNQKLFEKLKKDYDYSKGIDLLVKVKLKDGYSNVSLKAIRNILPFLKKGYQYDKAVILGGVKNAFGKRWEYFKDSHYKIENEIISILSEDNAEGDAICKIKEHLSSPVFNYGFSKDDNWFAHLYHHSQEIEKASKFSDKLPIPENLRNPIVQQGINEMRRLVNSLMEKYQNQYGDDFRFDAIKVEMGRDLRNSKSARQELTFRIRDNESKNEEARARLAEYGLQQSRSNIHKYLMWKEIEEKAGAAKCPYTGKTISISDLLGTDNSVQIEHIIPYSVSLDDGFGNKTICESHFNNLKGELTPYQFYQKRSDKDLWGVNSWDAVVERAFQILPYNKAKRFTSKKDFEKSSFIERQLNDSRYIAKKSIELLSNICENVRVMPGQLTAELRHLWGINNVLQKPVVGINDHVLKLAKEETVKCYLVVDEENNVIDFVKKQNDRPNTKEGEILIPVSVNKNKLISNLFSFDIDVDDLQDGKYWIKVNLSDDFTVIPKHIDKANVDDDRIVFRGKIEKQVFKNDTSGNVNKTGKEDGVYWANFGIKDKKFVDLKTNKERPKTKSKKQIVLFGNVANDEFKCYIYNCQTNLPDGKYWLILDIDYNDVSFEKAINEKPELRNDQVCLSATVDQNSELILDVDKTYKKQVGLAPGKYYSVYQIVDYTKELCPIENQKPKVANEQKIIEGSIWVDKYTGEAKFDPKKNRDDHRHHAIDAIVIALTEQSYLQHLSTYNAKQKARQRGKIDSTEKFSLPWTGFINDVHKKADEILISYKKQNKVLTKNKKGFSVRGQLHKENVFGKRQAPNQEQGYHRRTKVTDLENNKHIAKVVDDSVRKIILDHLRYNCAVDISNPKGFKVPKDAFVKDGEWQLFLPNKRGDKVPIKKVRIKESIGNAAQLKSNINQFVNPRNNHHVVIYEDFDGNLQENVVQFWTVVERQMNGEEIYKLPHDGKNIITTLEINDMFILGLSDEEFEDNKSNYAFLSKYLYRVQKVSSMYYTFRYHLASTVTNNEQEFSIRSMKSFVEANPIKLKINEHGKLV

## GGAAGAGCAGAGCCUUGGUCUCGUUGUGGAUUGAUCAGUUUGAAAAAACGAUCUCUUCACAACAAGGCUAUAUGCCGUAGUUGAUUCUACGCUCCCGCUUCGGCGGGAGCUUUUUUU / GGAAGAGCAGAGCCTTGGTCTCNNNNNNNN / NNNNNNNNGAGACCAAGGCTCTGCTCTTCC [OMNI-XL-18 sgRNA V2 T2 ; T2 protospacer 8N PAM library]
[1]
  activity (1-depletion score): 0.98

## GGAAGAGCAGAGCCUUGGUCUCGUUGUGGUUUGAUGUAAUUGAAAAAAUUACAUCUUAUCACAAUAAGGCUAUAUGCCGAAGGAUAAAAUGUCCUAUACUCCUGCUUCGGUAGGAGUUUUUUU / GGAAGAGCAGAGCCTTGGTCTCNNNNNNNN / NNNNNNNNGAGACCAAGGCTCTGCTCTTCC [OMNI-XL-16 sgRNA V1 T2 ; T2 protospacer 8N PAM library]
[2]
  activity (1-depletion score): 0.64

## GGAAGAGCAGAGCCUUGGUCUCGUUGUGGAUUGAUCAGUUUGAAAAAACGAUCUUUUCACAACAAGGCUAUAUGCCGUAGUUGAUUCUACGCUCCCGCUUCGGCGGGAGCUUUUUUU / GGAAGAGCAGAGCCTTGGTCTCNNNNNNNN / NNNNNNNNGAGACCAAGGCTCTGCTCTTCC [OMNI-XL-18 sgRNA V1 T2 ; T2 protospacer 8N PAM library]
[1]
  activity (1-depletion score): 0.97

## GGAAGAGCAGAGCCUUGGUCUCGUUGUGGAUUGAUUACUUUGAAAAAAGUAAUCUCUUCAUAACAAGGCUAUAUGCCGAAGUUAUUACGGCUCCACUUCGGUGGAGCCUUUUUU / GGAAGAGCAGAGCCTTGGTCTCNNNNNNNN / NNNNNNNNGAGACCAAGGCTCTGCTCTTCC [OMNI-XL-12 sgRNA V2 T2 ; T2 protospacer 8N PAM library]
[3]
  activity (1-depletion score): 0.97

## GGAAGAGCAGAGCCUUGGUCUCGUUGUGGAUUGAUCAGUUUGAAAAAACGAUCUUUUCACAACAAGGCUAUAUGCCGUAGUUGAUUCUACGCUCCCGCUUCGGCGGGAGCUUUUUUUU / GGAAGAGCAGAGCCTTGGTCTCNNNNNNNN / NNNNNNNNGAGACCAAGGCTCTGCTCTTCC [OMNI-XL-19 sgRNA V1 T2 ; T2 protospacer 8N PAM library]
[4]
  activity (1-depletion score): 0.94

## GGAAGAGCAGAGCCUUGGUCUCGUUGUGGAUUGAUUACUUUGAAAAAAGUAAUCUUUUCAUAACAAGGCUAUAUGCCGAAGUUAUUACGGCUCCACUUCGGUGGAGCCUUUUUU / GGAAGAGCAGAGCCTTGGTCTCNNNNNNNN / NNNNNNNNGAGACCAAGGCTCTGCTCTTCC [OMNI-XL-12 sgRNA V1 T2 ; T2 protospacer 8N PAM library]
[3]
  activity (1-depletion score): 0.98
